Test results as given in article PMC5719983, “The Cryoelectron Microscopy Structure of the Type 1 Chaperone-Usher Pilus Rod” (Structure(London, England:1993), 2017).

Biological target: the molecule itself
Experiment: co-sedimentation; in vitro assembly of FimA monomers to pilus rods: 50 μM FimA monomer in 20 mM acetic acid-NaOH pH 5.0, 150 mM NaCl, 7 days; rods pelleted at 186'000 x g, 10 min, 4°C

B1: Mature FimA without its natural signal sequence (159 residues), refolded FimA monomer (natural protein)
chain: AATTVNGGTVHFKGEVVNAACAVDAGSVDQTVQLGQVRTASLAQEGATSSAVGFNIQLNDCDTNVASKAAVAFLGTAIDAGHTNVLALQSSAAGSATNVGVQILDRTGAALTLDGATFSSETTLNNGTNTIPFQARYFATGAATPGAANADATFKVQYQ
notes: the N-terminal methionine added for cytoplasmic expression was cleaved off quantitatively (measured 15826.0 Da). numbers count on: the mature protein; also called pili assembled in vitro
B1: binds.
